The text below walks through data of patent US20240327535A1 (EISAI R AND D MANAGEMENT, published 2024).

Numbering of substitutions follows the chain as printed. Where two headings read alike, the source gives them in different places.

A word on the Kd: it is the free concentration of one partner at which half of the binding sites on the other are occupied at equilibrium, for simple one-to-one binding.

Common to all, as to test: Octet BLI; Fab 200 nM
A general note: Biolayer interferometry detects binding as a change in optical thickness at a sensor tip.

In test [1] the target is T1, extracellular domain of rhesus monkey BCMA (rhesus monkey, UniProt F7FFA0 1-53).
T1 construct: extracellular domain; also called RhBCMA
T1 sequence (F7FFA0 entry or part of it): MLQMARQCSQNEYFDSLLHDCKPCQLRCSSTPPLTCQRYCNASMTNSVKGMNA

The target of test [2] is T2, extracellular domain of human BCMA (human, UniProt Q02223 1-54).
T2 construct: amine-linked to Octet AR2G tips; also called hsBCMA; BCMA (human)
T2 sequence: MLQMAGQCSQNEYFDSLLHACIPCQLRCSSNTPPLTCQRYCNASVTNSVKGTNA

In test [3] the target is T2, extracellular domain of human BCMA. The source holds these as a separate data set.

B1: AB200-R1H32-R2Vk1 (Fab, V domains shown)
VH: QVQLVQSGAEVKKPGSSVKVSCKASGGTFSNYWMHWVRQAPGQGLEWMGATYRSHSDTYYNQKFKSRVTITADKSTSTAYMELSSLRSEDTAVYYCARGAIYHGYDVIDNWGQGTLVTVSS
VL: DIQMTQSPSSLSASVGDRVTITCRASQSISSYLNWYQQKPGKAPKLLIYAASSLQSGVPSRFSGSGSGTDFTLTISSLQPEDFATYYCQQFRKLPWSFGQGTKLEIKR
As for B1, the Kd in test [1] came out at 5.42 nM; in test [2], 1.27 nM.

B2: AB200-R1H26-R2Vk15 (Fab, V domains shown)
VH: B1 VH with T28S, S54I, Y59F, S66G, I108L
VL: B1 VL with L33I, F91Y, K93R, L94I, S97T
In turn, B2 gave a Kd in test [3] of 3.27 nM.

B3: AB200-R1H26-R2Vk18 (Fab, V domains shown)
VH: B1 VH with T28S, S54I, Y59F, S66G, I108L
VL: B1 VL with L33I, L94I, S97T
In test [3], B3 showed a dissociation constant (Kd) of 3.44 nM.

B4: AB200-R1H26-R2Vk14 (Fab, V domains shown)
VH: B1 VH with T28S, S54I, Y59F, S66G, I108L
VL: B1 VL with L33I, F91Y, K93R
On to B4, for which, in test [3], the Kd came to 2.52 nM.

B5: AB200-R1H26-R2Vk2 (Fab, V domains shown)
VH: B1 VH with T28S, S54I, Y59F, S66G, I108L
VL: B1 VL with L33I
For B5, the equilibrium dissociation constant (Kd) in test [3] was 2.37 nM.

B6: AB200-R1H26-R2Vk17 (Fab, V domains shown)
VH: B1 VH with T28S, S54I, Y59F, S66G, I108L
VL: B1 VL with L33I, F91Y, L94I
Molecule B6 showed a dissociation constant (Kd) in test [3] of 3.59 nM.

B7: AB200-R1H26-R2Vk16 (Fab, V domains shown)
VH: B1 VH with T28S, S54I, Y59F, S66G, I108L
VL: B1 VL with L33I, K93R, S97T
With B7, the dissociation constant Kd in test [3] amounted to 2.09 nM.

B8: AB200-R1H32-R2Vk21 (Fab, V domains shown)
VH: B1 VH
VL: B1 VL with A51T, S53N, K93R, S97T
As to B8, the Kd came out at 3.31 nM in test [1] and 0.8 nM in test [2].

B9: AB200-R1H32-R2Vk31 (Fab, V domains shown)
VH: B1 VH
VL: B1 VL with A51T, S53N, S56I, K93R, S97T
Turning to B9, the values for the dissociation constant Kd in test [1] and in test [2] were 2.82 nM and 0.665 nM, respectively.

B10: AB200-R1H32-R2Vk27 (Fab, V domains shown)
VH: B1 VH
VL: B1 VL with A51T, S53N, L54I, F91Y, L94I
As to B10, the Kd in test [1] was determined as 6.9 nM; in test [2], 1.21 nM.

B11: AB200-R1H32-R2Vk13 (Fab, V domains shown)
VH: B1 VH
VL: B1 VL with L94I, S97T
On to B11, for which the Kd in test [1] worked out at 6.59 nM; in test [2] it was 2.2 nM.

B12: AB200-R1H32-R2Vk24 (Fab, V domains shown)
VH: B1 VH
VL: B1 VL with A51T, S53N, L54I, F91Y, K93R
Consider B12, for which the Kd in test [1] is 4.89 nM; in test [2], 1.05 nM.

B13: AB200-R1H32-R2Vk11 (Fab, V domains shown)
VH: B1 VH
VL: B1 VL with K93R, S97T
As for B13, the dissociation constant Kd was 4.1 nM in test [1] and 0.936 nM in test [2].

B14: AB200-R1H32-R2Vk12 (Fab, V domains shown)
VH: B1 VH
VL: B1 VL with F91Y, L94I
Take B14: the Kd in test [1] came to 9.12 nM; in test [2], 1.53 nM.

B15: AB200-R1H32-R2Vk28 (Fab, V domains shown)
VH: B1 VH
VL: B1 VL with A51T, S53N, L54I, L94I, S97T
With B15, the Kd in test [1] turned out to be 5.99 nM; in test [2] it was 1.19 nM.

B16: AB200-R1H32-R2Vk3 (Fab, V domains shown)
VH: B1 VH
VL: B1 VL with A51T, S53N
Turning to B16, the dissociation constant (Kd) in test [1] was 4.38 nM; in test [2], 1.01 nM.
